Source: patent CN101151278A
Blank lines part the entries; values can stand above or below the substance they belong to.

What was measured:
[1] = biological target: 人FcRn (human) (UniProt P55899); assay: BIAcore, FcRn on CM5 chip, pH 6.0
[2] = biological target: 大鼠FcRn (rat) (UniProt P13599); assay: BIAcore, FcRn on CM5 chip
[3] = biological target: T1, CD20 on WIL2-S cells (human) (UniProt P11836); assay: cell-based or functional assay
T1 sequence (looked up): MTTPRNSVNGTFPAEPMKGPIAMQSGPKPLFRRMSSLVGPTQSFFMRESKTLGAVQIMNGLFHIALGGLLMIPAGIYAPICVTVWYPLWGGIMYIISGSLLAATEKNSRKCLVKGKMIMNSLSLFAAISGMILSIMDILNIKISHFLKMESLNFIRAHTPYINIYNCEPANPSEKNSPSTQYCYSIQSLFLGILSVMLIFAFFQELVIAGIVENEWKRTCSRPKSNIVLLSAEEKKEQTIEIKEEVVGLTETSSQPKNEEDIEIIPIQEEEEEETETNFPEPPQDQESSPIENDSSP

Chain of 大鼠FcRn (rat) (P13599 23-298 limits assumed, chain 1 of 2): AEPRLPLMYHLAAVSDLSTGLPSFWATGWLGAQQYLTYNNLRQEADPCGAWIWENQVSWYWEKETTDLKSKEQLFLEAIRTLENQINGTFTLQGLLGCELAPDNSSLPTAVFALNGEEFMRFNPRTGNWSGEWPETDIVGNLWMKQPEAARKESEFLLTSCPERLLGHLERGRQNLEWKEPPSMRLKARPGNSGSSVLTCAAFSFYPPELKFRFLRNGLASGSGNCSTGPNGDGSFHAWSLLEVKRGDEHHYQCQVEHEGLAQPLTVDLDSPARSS
Chain of 大鼠FcRn (rat) (P07151 21-119 limits assumed, chain 2 of 2, further chain): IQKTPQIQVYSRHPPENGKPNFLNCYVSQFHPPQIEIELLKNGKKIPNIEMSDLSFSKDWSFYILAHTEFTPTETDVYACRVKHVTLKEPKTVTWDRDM

fold increase in affinity vs wild-type Fc [1]: 9 fold
Substance: Fc变体 N434F (from UniProt P01857 114-330) (other; other documents disagree on this pair)

fold increase in binding vs wild-type Fc [2]: 10 fold
Substance: Fc变体 N434W (from UniProt P01857 114-330)

ADCC on WIL2-S cells with NK cells, EC50(变体)/EC50(2H7.v16) [3]: 5.3
ADCC on WIL2-S cells with NK cells, EC50(变体)/EC50(Rituxan) [3]: 1
CDC on WIL2-S cells, EC50(变体)/EC50(Rituxan) [3]: 1
Substance: Rituxan (antibody)

fold increase in affinity vs wild-type Fc [1]: 14 fold
Substance: Fc变体 N434A+E380A+T307A (from UniProt P01857 114-330) (other; other documents disagree on this pair)
